For the data set, the target named is GST-SF1KQ (EhSF1 KH-QUA2 domain) (Entamoeba histolytica) (UniProt C4M4V3). The data set is described as follows: EMSA. Particulars: EMSA: 50 ug protein (Fig 4), 200 fmol probe, 20 min (+10 min with U2 snRNA); binding buffer as in Ortuno-Pineda 2012, not given; UV crosslinking at pH 7.6 or ….

“UAUACUAACAA [yeast canonical BS probe (C+)]” gave a binding signal of 50%.

With “AACUUUUAUUU [E. histolytica RabX13 intron BS probe (P+)]”, the binding signal was 50%.

The values are drawn from publication PMC9247205.
